Experiment: soluble on expression in E. coli; label from the status in PepcDB or PDB records

Sequence | soluble on expression in E. coli
MAIDLAEVTGAKAAQERKKEQPTIANGLDKNAFMKLFLEQLKNQDPTAPMETDKIITQTAQLTQVEMQEENKKTMQEVASAMKSNKETNESLKDFQGALKDTMENLNKGMDDSLKANNALREVTALNSVSMIGKIAETDVSGANFDGNNKLSFSLFFDEKIDASKGVPAIQILNENNELVKTIPLKDYNGQKGYINFEWDGTNEKGEKVPKGNYKIKAEYNLDSHSKQYLQTRIGRGEVESVIFDKGKPMLRMGEMVLPIDSAIEFYQPDQKPLEQKLSDQKPIDQKPLDQKPQTPPKETA | not soluble
MGSDKIHHHHHHMKVLLYLEGKTVLEKSGIGRALQHQMEALDMAGIPYTTDLLGDYDVIHINTYGPRSWLLLHAAKRSGKKVIMHGHSTKEDFQNSFIGSNTLAPFVGKYLASMYQKADFVITPSEYSKKLIQSYGVTTPIIAVSNGIDLDKYKKDERKEAIFREHFKIEEGQPVVVCAGLYFRRKGIEDFVKVAEKMPHVRFIWLGSINKWLIPSYIRKIVEGDHPANVEFPGYFKGAVFQGAMSGADAFFFPSYEETEGIVVLEALASHQHVVLRDIPVYDGWVDENVAELGHTVDDFVDSIQKILDKQVDKREAGYQVAVSRSIDNVSHQLVDAYRQVLEM | not soluble
MGSDKIHHHHHHMVSLMEHGMLPDAVIRSGIRRLLMKRLQEESCGDTEADRARQREFFEQLSHSPLAMETGAANKQHYELPPDFFSLVLGPRRKYSCCLYPPGVDDLATAEEAMLRLTCQRAGLADGMDILELGCGWGSLTLWMAEHYPDARITAVSNSAPQRQFIQGACRGRGFGNVRVITADMNDFTIEKTFDRVVSVEMFEHMRNYAELLRRIAGWLKDDGRLFVHIFCHRTLAYLFQTDGEDDWMGRYFFTGGIMPSDHLLFYFNDHLAVEDHWRVGGRHYQRTCDGWLERMDTERRKILEIFWDVYEGDAPVWFQRWRVFFMACSELFGYSEGNEWFVSHYLLRKNSAGVLCGNRQKALSFSGVCK | not soluble
MRSAVSKVEESIEVAVPVSTAYNQWTQFEEFPQFMGGVERIEQQTATLTHWVTKVGGVTREFDAEIVEQIPDEQVSWTTVGGDVHQAGVVTFHRLDDRRTKVMLQMDHDSKGVVDAVGDKLGVVKHQVSEDLKRFKSFIENRGLEHHHHHH | not soluble
MADVEDGEETCALASHSGSSGSKSGGDKMFSLKKWNAVAMWSWDVECDTCAICRVQVMDACLRCQAENKQEDCVVVWGECNHSFHNCCMSLWVKQNNRCPLCQQDWVVQRIGKLEHHHHHH | soluble
MAANQNVTKKKKAVIGGIFKAELNNFLMKELAEDGYSGVEVRSTPARAEVIIMATRTQNVLGERGRRIKELTSVVQKRFGFEEGSVELYAEKVSNRGLCAVAQCESLRYKLVGGLAVRRACYGVLRFIMESGAQGVEVIVSGKLRGQRAKAMKFVDGLMIHSGHPVNDYIQQAVRHVQLRQGVIGIKVKIMLPYDPRGQNGPRNALPDHVQIVEPQEEVLPKEPHSQHKEEKKDVQVPAAQPVAPVQ | not soluble
MSKKIILITGASSGFGRLTAEALAGAGHRVYASMRDIVGRNASNVEAIAGFARDNDVDLRTLELDVQSQVSVDRAIDQIIGEDGRIDVLIHNAGHMVFGPAEAFTPEQFAELYDINVLSTQRVNRAALPHMRRQKHGLLIWISSSSSAGGTPPYLAPYFAAKAAMDAIAVQYARELSRWGIETSIIVPGAFTSGTNHFAHSGVPDDHARQAEYEAGPNAGLGEEIKKAFAAIVPPDADVSLVADAIVRVVGTASGKRPFRVHVDPAEDGADVGFSVLDRLRAEMLHRVGLSDLLKPRALA | soluble
SNAYTDESGLSELVNAAGEKLQDLELMGQKNAVRDFFKELIADSGKVAYGESQVRANLEINSVDVLLLSEDLRAERVTTKCSVCGYENKWTRRWKPGEPAPAAGNCPKCGSSLEVTDVTDIVDEFSELADKSNAKVVFVSTDFDEGSQLMNAFGGIAAILRYNTGV | soluble
MSKRNTQLRRHAISNMVNELGEVSVDELAQKFETSEVTIRKDLASLEKNGQLLRRYGGAIAIPTEVIHEELSSNVSTRKLSLAKAAASLIRDHNRIVIDSGSTTAALIQQLNDKRGLVVMTNSLHVANALNELESEPTLLMTGGTWDTHSESFQGKVAESVLRAYDFDQLFIGADGIDLERGTTTFNELVGLSKVMAEVSREVIVMIESEKIGRKIPNLELAWHQIDVLVTDADIQPEHKVQIEQHGVKVICALEHHHHHH | soluble
MGSDKIHHHHHHMTHSTDITTLARWFAADFSNQQQAFDNPPLFAHIRVCMRPLPYQLLNGLSLYLEQAYDITLNQPYRVRVLKLVPSENHIEIENYIIDQEAEFYGASRDPQRLKNLKTEYIKKLPGCTFITKWTGKSFKGEVEPGKGCTVVREGKSTYLKSYFEINEHKFISHDTGYDPETDQQVWGAIAGPFEFVRWASFADEVI | not soluble
MTKLVIDTVGPATSVQDAGRHGAQRYGLPPSGAMDRLSLAAANVLVGNSAFAAAIELGPLGAKLSVRDGAVRLALTGAERPAALDGQPLAFNESFTLAEGQILTLGVARGGVFSYLGIEGGVGGEPMFGSLAVNARAGLGSPYPRPLQAGDAIAVKSAAPSVERRLDLPEQQDTPIRVVLGPQDDEFGAAVEIFLTGEWTMSATSDRMGYRLDGPQISHLHGHNIVSDGTVDGSIQVPGSGQPIVLMPDRGTSGGYPKIATVISADLGRLAQRQPGRPFRFQAVSVEEAQDAYRTMAKLIRSLPDLLRDAQHAIIDLDALLSANVAGTAIDALAAELEHHHHHH | not soluble
MGSDKIHHHHHHVGALLSKITATDLASTLTGDPEALHVHLTLVARDVSIKGHTVKIHCHCLTVDGNGRVQPHRLAEFMRNAVVDYAIPRSKVADAKARDLKYNSTEATTELVERAKRSFTDLANTGEGGEMLLFLLAERFLKLPQILCKMDLKTDTRMHYHGADGVYAGVTPSGTLKLYWGESKIYKKVGDAIRDCLASLAPFLIEPEHEDAERERDLILLSDKADLTNSELTGALKRYFDRSSEMSTRVQYCGVALVGFDAPFYPASDVKVLADQIVDGSRRALSDWSDKIGARLAAEKLSDMEIQLFCIPLPSADGFRAAFLKAMGIKGG | not soluble
MGSDKIHHHHHHMTERTLRGQVAVVGVGESEYYRAGHAPDPEFRLLLKAVLAACRDADIDPADIDGFASFADDRNDAVRIATALGVKRLRSTTMQWGGGGGGCAAAVANGAAAIMSGMAQCVLVYRGLAQGQFGRFGQAAPRASISGEMAYQMPYGVLAPPQKFAMKVQRFMHEHGVRREALRAIALASYQHAQANPRAVMHGKPLTAEAYDASRWIVEPFRLFDCCMENDGAGALLLVAAERAKDFPHRPVYLLGAASGGDWRAAASPHNAPHYASANYSGVSGDLYRMARVSPADVGVVQSYENFTGGVAMALSEHGFFHPDEANDFLTPENLVAPSGKLPLNTSGGNLGECYVHGFELVIEAARQVRGESTSQAARHDVALVIGGPMVTPASSLLFGSAATL | not soluble
MNVGILGIGRYVPEKVVTNHDLEKIMDTSDEWIRTRTGIAERRIADDTIDTSYMAVEASKKALEDAGISGEDIDLILVATVTPDRAFPAVACVIQEAIGAKHAAAMDLSAACAGFMYGMITAQQFIQTGTYKNVLVVGSDKLSKIVDWNDRNTAVLFGDGAGAIVMGAVSEGKGVLSFELGADGSGGKHLYQDEYVMMNGREVFKFAVRQLGDSCLRVLDKAGLTKEDVDFLVPHQANIRIMESARERLNLPQEKMSMTIEKFGNTSASSIPIAMVEELQNGRIQDGDLIILVGFGGGLTWGAVALRWGK | not soluble
MSLAVNLTEKTAEQLPDIDGIALYTAQAGVKKPGHTDLTLIAVAAGSTVGAVFTTNRFCAAPVHIAKSHLFDEDGVRALVINTGNANAGTGAQGRIDALAVCAAAARQIGCKPNQVLPFSTGVILEPLPADKIIAALPKMQPAFWNEAARAIMTTDTVPKAASREGKVGDKHTVRATGIAKGSGMIHPNMATMLGFIATDAKVSQPVLQLMTQEIADETFNTITVDGDTSTNDSFVIIATGKNSQSEIDNIADPRYAQLKELLCSLALELAQAIVRDGEGATKFITVRVENAKTRDEARQAAYAVARSPLVKTAFFASDPNLGRLLAAIGYAGVADLDTDLVEMYLDDILVAEHGGRAASYTEAQGQAVMSKAEITVRIKLHRGQAAATVYTCDLSHGYVSINADYRSEGHHHHHH | soluble
LLPLRGLLVFPTMVLHLDVGRKKSVEALEHAMIDDHYILLAAQKEISIDEPIETDIYQIGTYAKVKQMLKLPNGTIRVLVEGLQRAKIEKYVANDAFIEVEMCTLPEDDEDNATENKALMRNVLQLFEQYIKLSKKVSAETLASVSDIAEPGRLADVIASHLPLKIVEKQQLLETTSVKERLLQV | soluble
MSDRVIIAGGGIGGLASALTLHQIGVPCVVYEAAREMRPLGVGINLQPNAVRELLDLGITEADLDGVGLPAKEWALVGLNGNDIYAEPRGKAAGYRWPQYAVHRGRFHMLLNDKVIERLGADAVQLGRRVTSYRKTADGVVATVEHADGGTSEVSGALLIGADGIHSAVRAQMHPNQPPIHWGGAVMWRGTTWGKPTRSGASFIGLGTHRHRVVIYPISHPDPATGLSMLNWIAEVTLDNAEGWKQQGWFRQVPTSEFAHHFDGWVWDWLDVPAMIREADSAYENPMIDRDPVATWRDGPVVLIGDAAHAMYPTGSNGGTQAIVDARELGAAMVAHGATEAALAAFDAKLCGPISQLILRNRGAGPFGLLNLVDERCGGTFDNIDDVIPPAERAAFMAGYKAAAGFAIDHLNAAPPTIAPGARVKESAAALEHHHHHH | not soluble
MGSDKIHHHHHHMMRDTPLLHRDDPAKDPLVGHIKVTREDWVNTARDVLVNSGVAQVKIATLAGRLDVSRSSFYWYFQNRDELLSALLQDWQTRNTRSITDHCARPSRSIAQALCNFFRCFVDTRQFDPGLDFAIREWARRNEDVRDAIDAADTARLDAVRAMFDRHDYAPEDADARARILYFMQLGYHALDLREDMETRMSRVSAYVLGFTGISPQNTDIEEFLDYVGDLAPHGISGASQRA | not soluble
MSLSKRNKPQESKEFGFQALKINGTYVSTDIMKEERNKFFEKYKRNADVLRMNDHERNDMLLDQVIERLLLEDYVNNKSGVTATDSEVEDYINRFIKPRYGDSLGTFMSSQGYTNEEEMKAGIKEYILKHKALYKAAKEKNVTLTEQELDEGYEKHKIQNKKVDIRHIFISSQERGKEEAKKLADEIYNRLKNNEDFETLAKQYSDDEKTKESGGVITELRAGFNEAVFDNAVFTAEAGQLLEPIEVARGYEIVYVDKVTEGHHHHHH | soluble
MKFIIEALKRVRERRPLVHNITNFVVMNTTANALLALGASPVMAHAEEELEEMIRLADAVVINIGTLDSGWRRSMVKATEIANELGKPIVLDPVGAGATKFRTRVSLEILSRGVDVLKGNFGEISALLGEEGKTRGVDSLEYGEEEAKKLTMNAAREFNTTVAVTGAVDYVSDGRRTFAVYNGHELLGRVTGTGCMVAALTGAFVAVTEPLKATTSALVTFGIAAEKAYEEAKYPGSFHVKLYDWLYRINENVIRTYAKVREVEL | soluble
MFAMTSIAVIGGGKIGEALISGLVASGMSPKDIHVTNRNAERAQELKERYGVLTFLENIAAVDDVDMVFLCVKPQQVIPVVEEIADVVDNNTSTTIVSMAAGVTNAMIEESLAAGSPVIRVMPNTPMLVGKGMSVVAPGRYADEDTVASLTQLLEAVGSVEVIEESSMDAVVALSGSSPAYLFLMVEALIDAGVFLGLPRDKAKNLAVSSFAGAATMLEQTGEEPAVLRANVSSPGGTTIAAIREFEESGLRAAVYRAATAAATRNSSLG | not soluble

From the DeepSol protein solubility set
